From patent US20240092919A1

Experiments:
[1] = target: human CD123 on cells (human) (UniProt P26951); assay: cell-based or functional assay
[2] = target: human CD33 on cells (human) (UniProt P20138); assay: cell-based or functional assay
human CD33 on cells (human), sequence (P20138 18-364): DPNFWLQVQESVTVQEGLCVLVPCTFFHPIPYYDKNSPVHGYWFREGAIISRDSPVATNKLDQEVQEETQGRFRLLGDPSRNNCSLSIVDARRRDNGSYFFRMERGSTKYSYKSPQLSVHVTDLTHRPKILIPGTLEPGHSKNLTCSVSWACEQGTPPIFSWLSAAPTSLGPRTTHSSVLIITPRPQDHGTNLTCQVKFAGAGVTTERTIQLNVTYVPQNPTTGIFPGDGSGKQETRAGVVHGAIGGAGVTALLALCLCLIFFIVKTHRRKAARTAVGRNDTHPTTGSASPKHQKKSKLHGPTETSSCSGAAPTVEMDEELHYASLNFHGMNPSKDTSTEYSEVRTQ

human CD123 on cells (human), sequence (P26951 19-378 limits assumed): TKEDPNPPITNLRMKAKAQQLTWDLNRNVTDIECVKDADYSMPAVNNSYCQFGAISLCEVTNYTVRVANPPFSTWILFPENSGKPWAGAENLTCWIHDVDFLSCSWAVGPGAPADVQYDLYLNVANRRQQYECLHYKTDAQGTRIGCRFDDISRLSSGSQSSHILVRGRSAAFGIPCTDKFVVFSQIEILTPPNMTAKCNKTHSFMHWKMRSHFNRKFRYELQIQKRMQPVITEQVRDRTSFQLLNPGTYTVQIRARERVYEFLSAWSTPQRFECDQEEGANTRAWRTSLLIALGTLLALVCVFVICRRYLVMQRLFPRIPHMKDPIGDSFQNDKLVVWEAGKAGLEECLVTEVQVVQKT

| Substance | % Lysis, human T cell mediated KG-1a cell killing [1] [%] | EC50 (M), flow cytometry based human T cell mediated KG-1a cell killing, E:T 10:1 [1] [M] | % Lysis, human T cell mediated U-937 cell killing [2] [%] | EC50 (M), flow cytometry based human T cell mediated U-937 cell killing, E:T 10:1 [2] [M] |
| --- | --- | --- | --- | --- |
| CD33/CD3 BiTE AMG 330 (bispecific antibody) | 15 | 8.7e-12 | 55 | 1.1e-11 |
| CD123/CD3 DART MGD006 (bispecific antibody) | 58 | 3e-12 | 13 | 8.9e-13 |
